From patent publication US20100081612A1 (GENERAL HOSPITAL, published 2010) come the findings set out here.

Where no end group is shown, it is not given here. A value given as a limit tells only on which side of the number the result lay.

The target of experiment [1] is T1, wild-type human PTHR (human, UniProt Q03431 27-593).
T1 sequence (looked up): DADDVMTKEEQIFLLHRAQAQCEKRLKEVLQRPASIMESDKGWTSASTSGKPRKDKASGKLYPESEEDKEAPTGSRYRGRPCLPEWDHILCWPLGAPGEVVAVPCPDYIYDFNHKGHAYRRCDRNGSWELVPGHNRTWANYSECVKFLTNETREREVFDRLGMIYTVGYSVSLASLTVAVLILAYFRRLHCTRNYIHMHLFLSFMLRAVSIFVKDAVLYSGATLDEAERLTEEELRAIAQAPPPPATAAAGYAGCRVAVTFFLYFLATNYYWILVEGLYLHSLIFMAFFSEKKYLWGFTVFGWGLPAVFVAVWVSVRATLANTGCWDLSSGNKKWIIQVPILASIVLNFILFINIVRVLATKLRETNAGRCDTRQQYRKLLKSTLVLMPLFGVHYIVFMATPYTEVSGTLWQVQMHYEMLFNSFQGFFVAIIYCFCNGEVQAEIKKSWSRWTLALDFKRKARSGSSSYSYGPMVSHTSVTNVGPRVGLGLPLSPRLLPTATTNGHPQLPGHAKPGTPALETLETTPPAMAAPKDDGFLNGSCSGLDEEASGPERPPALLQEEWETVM
The experiment in a line: cell-based or functional assay.

Experiment [2] addresses T1, wild-type human PTHR. The experiment is described as follows: competition binding, HKRK-B7 cells, 125I-PTH(1-34) tracer. The method, then: Receptor binding—Binding to the wild-type human PTHR in intact HKRK-B7 cells and ROS 17/2.8 cells was assessed using ¹²⁵I-PTH(1-34) as a tracer radioligand, as described (Shimizu, M., (2001) Endocrinology 142:3068-3074). In brief, the cells in 24-well plates (about 500,000 cells per well) were incubated in binding buffer containing radioligand (about 100,000 cpm per well) with or without unlabeled peptide ligand (3×10⁻⁹ to 1×10⁻⁵ M) for four hours at 15° C. The binding mixture was then removed by aspiration, the cells were rinsed three times with binding buffer, lysed in 1 M NaOH, and the entire lysate was counted for gamma-irradiation in a gamma counter. Binding to PTHR-delNt in COS-7 cell membranes was assessed in 96-well, vacuum filtration plates (Multiscreen-Durapore HV, […], Millipore Corp., Millford, Mass.) using ¹²⁵I-[Aib^{1,3},M]PTH(1-15)NH₂ as a tracer radioligand, as described (Dean, T., (2006) Mol Endocrinol 20:931-942). In brief, cell membranes (20 μg/well) were incubated in membrane binding buffer containing radioligand (30,000 cpm/well) with or without unlabeled peptide ligand (3×10⁻⁹ to 1×10⁻⁵ M) for 90 minutes at 21° C. The plates were then subject to rapid vacuum filtration, the filters were washed once with buffer, detached from the plate and counted for gamma-irradiation in a gamma counter. Non-specific binding was defined as the binding observed in the presence of 1×10⁻⁶ M PTH(1-31)NH₂ for HKRK-B7 and ROS 17/2.8 cells, and 1×10⁻⁶ M [Aib^{1,3},M]PTH(1-15)NH₂ for PTHR-delNt. Specifically bound radioactivity was calculated as a percentage of the radioactivity specifically bound in the absence of competing ligand.
Alanine-Scan of the PTH(17-31) domain—Each residue in the (17-31) region of PTH(1-31)NH₂ was individually replaced with alanine and the effects of the substitutions on binding to the intact human PTHR stably expressed in HKRK-B7 cells was assessed. Competition binding studies were performed using whole cells and ¹²⁵I-PTH(1-34) (¹²⁵I-[Nle^{8,21},Tyr³⁴]ratPTH(1-34)NH₂) as a tracer radioligand.

The target of experiment [3] is PTHR-delNt (human) (UniProt Q03431). The experiment in a line: competition binding, COS-7 membranes, 125I-[Aib1,3,M]PTH(1-15) tracer.
The target in experiment [4] is T1, wild-type human PTHR. The experiment is described as follows: competition binding, HKRK-B7 cells, 125I-PTH(1-34) tracer. This is another data set of the same source.

B1: human PTH(1-31)NH2 (peptide)
peptide: SVSEIQLMHNLGKHLNSMERVEWLRKKLQDV-NH2
notes: also called hPTH(1-31)NH2; parental PTH(1-31)NH2 peptide
One may read the IC50 as the concentration needed to halve the response being measured. A lower IC50 goes with inhibition by little substance. As to B1, the “inositol phosphate (IP) production, peptide at 1×10^-6 M” value (“inositol phosphate (IP) production” below) in experiment [1] was determined as 4 fold. Moreover, the IC50 in experiment [2] was determined as 68 nM; in experiment [3], 3670 nM.

For SVSEIQLMHNLGKHLNSMERVAWLRKKLQDV-NH2 [PTH(1-31)NH2 Glu^22→Ala], the “inositol phosphate (IP) production” value in experiment [1] was 4 fold. For the same molecule, in experiment [4], the “fold enhancement in binding affinity vs PTH(1-31)NH2” value (“fold enhancement in binding affinity” below) was at most 2 fold. For the same molecule, the IC50 in experiment [2] came to 36 nM; in experiment [3] it was 5860 nM.

For SVSEIQLMHNLGKHLNSMERAEWLRKKLQDV-NH2 [PTH(1-31)NH2 Val^21→Ala], the “inositol phosphate (IP) production” value in experiment [1] was determined as 4 fold. For the same molecule, the figures for the IC50 in experiment [2] and in experiment [3] were 200 nM and 5690 nM, respectively.

As for SVSEIQLMHNLGKHLNSMERVEWLRAKLQDV-NH2 [PTH(1-31)NH2 Lys^26→Ala], the “inositol phosphate (IP) production” value in experiment [1] stood at 4 fold. The “fold change in binding affinity vs PTH(1-31)NH2” value in experiment [4] was at most 2 fold. Moreover, the IC50 in experiment [2] is 125 nM; in experiment [3] it was 6210 nM.

For SVSEIQLMHNLGKHLNSMERVEWLRKKAQDV-NH2 [PTH(1-31)NH2 Leu^28→Ala], the “inositol phosphate (IP) production” value in experiment [1] was determined as 4 fold. For the same molecule, the IC50 in experiment [2] came to 290 nM; in experiment [3] it was 3460 nM.

Consider SVSEIQLMHNLGKHLNSMEAVEWLRKKLQDV-NH2 [PTH(1-31)NH2 Arg^20→Ala], for which, in experiment [1], the “inositol phosphate (IP) production” value is 4 fold. In experiment [2], this molecule registered an IC50 of over 10000 nM. Moreover, in experiment [3], the IC50 amounted to 19300 nM and the fold reduction in binding affinity vs PTH(1-31)NH2 worked out at 5 fold.

For SVSEIQLMHNLGKHLNSMERVEWLAKKLQDV-NH2 [PTH(1-31)NH2 Arg^25→Ala], the “inositol phosphate (IP) production” value in experiment [1] was 4 fold. Further, the results for the IC50 in experiment [2] and in experiment [3] were 281 nM and 7180 nM, respectively.

Consider SVSEIQLMHNLGKHLNSMERVEWARKKLQDV-NH2 [PTH(1-31)NH2 Leu^24→Ala], for which the “inositol phosphate (IP) production” value in experiment [1] turned out to be 4 fold. For the same molecule, the entries for the “fold reduction in binding affinity vs PTH(1-31)NH2” value in experiment [4] and in experiment [3] were 12 fold and 2 fold, respectively. The IC50 in experiment [2] turned out to be 807 nM; in experiment [3], 8760 nM.

As for SVSEIQLMHNLGKHLNSMERVEWLRKALQDV-NH2 [PTH(1-31)NH2 Lys^27→Ala], the “inositol phosphate (IP) production” value in experiment [1] stood at 4 fold. In addition, the IC50 in experiment [2] was 217 nM; in experiment [3], 7290 nM.

As to SVSEIQLMHNLGKHLNSMERVEWLRKKLADV-NH2 [PTH(1-31)NH2 Gln^29→Ala], the “inositol phosphate (IP) production” value in experiment [1] was 4 fold. For the same molecule, in experiment [4], the “fold enhancement in binding affinity” value is at most 2 fold. Moreover, the IC50 in experiment [2] is 44 nM; in experiment [3], 1930 nM.

Consider SVSEIQLMHNLGKHLNSMERVEWLRKKLQAV-NH2 [PTH(1-31)NH2 Asp^30→Ala], for which the “inositol phosphate (IP) production” value in experiment [1] was 4 fold. Moreover, the “fold change in binding affinity vs PTH(1-31)NH2” value in experiment [4] was at most 2 fold. Further, the IC50 in experiment [2] was found to be 63 nM; in experiment [3] it was 1540 nM.

For the molecule SVSEIQLMHNLGKHLNSMERVEWLRKKLQDA-NH2 [PTH(1-31)NH2 Val^31→Ala], the “inositol phosphate (IP) production” value in experiment [1] is 4 fold. Moreover, the IC50 worked out at 176 nM in experiment [2] and 4910 nM in experiment [3].

With SVSEIQLMHNLGKHLNSMARVEWLRKKLQDV-NH2 [PTH(1-31)NH2 Glu^19→Ala], the “inositol phosphate (IP) production” value in experiment [1] came out at 4 fold. In experiment [4], the “fold enhancement in binding affinity” value is at most 2 fold. In addition, the IC50 in experiment [2] is 49 nM; in experiment [3], 2940 nM.
